Results on one molecule are retold here after US20160115212A1.

In this test the target is HLA class II molecules of healthy donors carrying different HLA DR alleles. Put plainly: cell-based or functional assay.

Regarding HSKIIIIKKGHAK [IGFBP3 169-181], the IFNγ producing CD4-positive T-cells, donor 1, after an additional round of stimulation was 0.09 to 0.13%; the IFNγ producing CD4-positive T-cells, donor 1, after the third stimulation was 0.05 to 0.1%; the maximal frequency of IFNγ producing CD4^+T-cells, donor 2 turned out to be 0.05%; the maximal frequency of IFNγ producing CD4^+T-cells, donor 3 is 0.07%.
